Results reported in patent US20210379046A1, “Methods of Treating Diseases Using Kinase Modulators” (Memorial Sloan Kettering Cancer Center, priority 2018, published 2021).

Molecular target: non-WT1-derived peptide expressed on TPC1 cells in complex with HLA-A*02:01 (human)
Assay: cell-based or functional assay

ESK1 (antibody)
improvement of specific lysis, chromium-51 release ADCC, TPC1 cells pretreated with 100 nM trametinib: 10% | percent specific lysis, chromium-51 release ADCC with human PBMCs, 50:1 E:T, TPC1 cells pretreated with 10 nM AST487: 20% | percent specific lysis, chromium-51 release ADCC with human PBMCs, 50:1 E:T, TPC1 cells pretreated with DMSO: 3%
